Measurements from patent publication US20240270821A1, “GIP/GLP1/GCG TRI-RECEPTOR AGONISTS AND USES THEREOF” (priority 2023, published 2024).
Starred links: 1 amine or outer side, 2 acyl side, 3 side chain; linkers in the order of their positions; H or OH if unused. Non-standard residues stand in square brackets, D forms with d. Groups on a side chain read outwards from the residue. No end group written: not given here. *: point of attachment. C20 diacid = O=C(O)CCCCCCCCCCCCCCCCCCC(=O)*; C18 diacid = O=C(O)CCCCCCCCCCCCCCCCC(=O)*; αMePhe(2-F) = C[C@](N)(Cc1ccccc1F)C(=O)O; γGlu = O=C(O)[C@H](CCC(=O)[*:2])N[*:1]; NMeY = CN[C@@H](Cc1ccc(O)cc1)C(=O)O; αMeF = C[C@](N)(Cc1ccccc1)C(=O)O; αMeL = CC(C)C[C@](C)(N)C(=O)O; AEEA = NCCOCCOCC(=O)O; Aib = CC(C)(N)C(=O)O

T1: human GIP receptor (human) (UniProt P48546)
T1 sequence (looked up): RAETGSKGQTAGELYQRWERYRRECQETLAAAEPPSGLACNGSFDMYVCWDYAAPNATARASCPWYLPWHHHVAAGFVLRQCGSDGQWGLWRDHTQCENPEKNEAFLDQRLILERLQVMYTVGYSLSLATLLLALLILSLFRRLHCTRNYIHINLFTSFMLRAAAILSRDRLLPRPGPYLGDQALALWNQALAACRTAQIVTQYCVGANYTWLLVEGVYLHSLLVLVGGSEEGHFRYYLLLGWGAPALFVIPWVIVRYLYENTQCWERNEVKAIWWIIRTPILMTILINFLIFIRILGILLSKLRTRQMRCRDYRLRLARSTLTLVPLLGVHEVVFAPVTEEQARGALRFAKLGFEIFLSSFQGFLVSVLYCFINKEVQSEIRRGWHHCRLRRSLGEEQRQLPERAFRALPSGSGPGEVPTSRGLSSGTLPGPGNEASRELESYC


Molecular target: hGLP-1R (Homo sapiens, UniProt P43220)
Sequence (P43220 24-463): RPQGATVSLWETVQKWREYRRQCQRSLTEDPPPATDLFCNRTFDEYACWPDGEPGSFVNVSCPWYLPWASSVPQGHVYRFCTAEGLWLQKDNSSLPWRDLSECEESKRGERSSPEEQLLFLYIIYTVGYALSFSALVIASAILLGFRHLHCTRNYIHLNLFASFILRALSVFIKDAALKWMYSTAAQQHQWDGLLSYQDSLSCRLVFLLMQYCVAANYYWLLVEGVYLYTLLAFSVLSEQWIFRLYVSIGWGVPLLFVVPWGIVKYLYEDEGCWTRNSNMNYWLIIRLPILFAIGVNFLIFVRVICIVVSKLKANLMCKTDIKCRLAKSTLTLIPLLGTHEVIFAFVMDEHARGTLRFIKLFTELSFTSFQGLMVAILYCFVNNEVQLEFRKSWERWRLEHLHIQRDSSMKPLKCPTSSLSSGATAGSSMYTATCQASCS
Assay: cell-based or functional assay

Row | Binder | Relative cAMP EC50 | cAMP Rel EC50 (1% HSA) | cAMP Rel EC50 (in the presence of 1% HSA)
1 | Y[Aib]QGT[αMeF]TSDYSILLDKIAAKNFIEYLVEGGPSSGEPPPSEG-NH2 (not fully specified (residue 20)) [Example 307] | 0.836 nM | 209 nM | –
2 | [NMeY][Aib]QGT[αMeF]TSDYSILLDKQAAKAFVQWLIAGGPSSGEPPPSEG-NH2 (not fully specified (residue 20)) [Example 301] | 0.641 nM | 82.4 nM | –
3 | Y[Aib]QGTFTSDYSI[αMeL]LDKQAAKQFVEWLLA[Aib]GPSSGEPPPSEG (not fully specified (residue 20)) [Example 329] | 0.926 nM | 204 nM | –
4 | Y[Aib]QGT[αMePhe(2-F)]TSDYSKLLDKIAQKAFIEYLIEGGPSSGEPPPSEG-NH2 (not fully specified (residue 20)) [Example 304] | 0.551 nM | 172 nM | –
5 | Y[Aib]QGTFTSDYSI[αMeL]LDKK([AEEA-γGlu-C20 diacid])AQRAFIEYLLEGGPSSGEPPPSEG-NH2 [Example 289] | 0.449 nM | – | 139 nM
6 | Y[Aib]QGT[αMePhe(2-F)]TSDYSKLLDKIAQK([AEEA-γGlu-C20 diacid])AFIEYLLEGGPSSGEPPPSEG-NH2 [Example 295] | 0.831 nM | – | 232 nM
7 | Y[Aib]QGTFTSDYSI[αMeL]LDKQAAKAFVEWLLAGGPSSGEPPPSEG-NH2 (not fully specified (residue 20)) [Example 305] | 1.48 nM | 415 nM | –
8 | Y[Aib]QGT[αMePhe(2-F)]TSDYSKLLDKQAQK([AEEA-γGlu-C20 diacid])QFIEYLIEGGPSSGEPPPSEG-NH2 [Example 309] | 0.808 nM | 251 nM | –

Molecular target: Pro-Link-tagged Human GLP-1R (human) (UniProt P43220)
Sequence (P43220 24-463): as the sequence (P43220 24-463) above
Assay: cell-based or functional assay

Row | Binder | % Stimulation Max | hGLP1R β-arrestin Rel EC50
9 | Y[Aib]QGT[αMeF]TSDYSILLDKIAAKNFIEYLVEGGPSSGEPPPSEG-NH2 (not fully specified (residue 20)) [Example 307] | 70.8% | 9.86 nM
10 | [NMeY][Aib]QGT[αMeF]TSDYSILLDKQAAKAFVQWLIAGGPSSGEPPPSEG-NH2 (not fully specified (residue 20)) [Example 301] | 59.1% | 13.2 nM
11 | Y[Aib]QGTFTSDYSI[αMeL]LDKQAAKQFVEWLLA[Aib]GPSSGEPPPSEG (not fully specified (residue 20)) [Example 329] | 74.5% | 6.11 nM
12 | Y[Aib]QGT[αMePhe(2-F)]TSDYSKLLDKIAQKAFIEYLIEGGPSSGEPPPSEG-NH2 (not fully specified (residue 20)) [Example 304] | 47.8% | 9.21 nM
13 | Y[Aib]QGTFTSDYSI[αMeL]LDKK([AEEA-γGlu-C20 diacid])AQRAFIEYLLEGGPSSGEPPPSEG-NH2 [Example 289] | 47.5% | 5.96 nM
14 | Y[Aib]QGT[αMePhe(2-F)]TSDYSKLLDKIAQK([AEEA-γGlu-C20 diacid])AFIEYLLEGGPSSGEPPPSEG-NH2 [Example 295] | 44.1% | 16.4 nM
15 | Y[Aib]QGTFTSDYSI[αMeL]LDKQAAKAFVEWLLAGGPSSGEPPPSEG-NH2 (not fully specified (residue 20)) [Example 305] | 58.3% | 23.3 nM
16 | Y[Aib]QGT[αMePhe(2-F)]TSDYSKLLDKQAQK([AEEA-γGlu-C20 diacid])QFIEYLIEGGPSSGEPPPSEG-NH2 [Example 309] | 47.2% | 6.72 nM

Molecular target: human GLP-1R (SNAP-GLP-1R expressed in HEK293 cells) (human) (UniProt P43220)
Sequence (P43220 24-463): as the sequence (P43220 24-463) above
Assay: cell-based or functional assay

Row | Binder | GLP1R Internalization EC50 | Internalization % TOP
17 | Y[Aib]QGTFTSDYSI[αMeL]LDKQAAKQFVEWLLA[Aib]GPSSGEPPPSEG (not fully specified (residue 20)) [Example 329] | 34 nM | 91.1%
18 | Y[Aib]QGTFTSDYSI[αMeL]LDKK([AEEA-γGlu-C20 diacid])AQRAFIEYLLEGGPSSGEPPPSEG-NH2 [Example 289] | 10.9 nM | 86.5%
19 | Y[Aib]QGT[αMePhe(2-F)]TSDYSKLLDKIAQK([AEEA-γGlu-C20 diacid])AFIEYLLEGGPSSGEPPPSEG-NH2 [Example 295] | 31.4 nM | 88.4%

Molecular target: T1, human GIP receptor (human)
Assay: cell-based or functional assay

Row | Binder | Relative cAMP EC50 | cAMP Rel EC50 (1% HSA) | cAMP Rel EC50 (in the presence of 1% HSA)
20 | Y[Aib]QGT[αMeF]TSDYSILLDKIAAKNFIEYLVEGGPSSGEPPPSEG-NH2 (not fully specified (residue 20)) [Example 307] | 0.446 nM | 65.3 nM | –
21 | [NMeY][Aib]QGT[αMeF]TSDYSILLDKQAAKAFVQWLIAGGPSSGEPPPSEG-NH2 (not fully specified (residue 20)) [Example 301] | 0.722 nM | 81.8 nM | –
22 | Y[Aib]QGTFTSDYSI[αMeL]LDKQAAKQFVEWLLA[Aib]GPSSGEPPPSEG (not fully specified (residue 20)) [Example 329] | 0.207 nM | 42.6 nM | –
23 | Y[Aib]QGT[αMePhe(2-F)]TSDYSKLLDKIAQKAFIEYLIEGGPSSGEPPPSEG-NH2 (not fully specified (residue 20)) [Example 304] | 0.127 nM | 48 nM | –
24 | Y[Aib]QGTFTSDYSI[αMeL]LDKK([AEEA-γGlu-C20 diacid])AQRAFIEYLLEGGPSSGEPPPSEG-NH2 [Example 289] | 0.382 nM | – | 105 nM
25 | Y[Aib]QGT[αMePhe(2-F)]TSDYSKLLDKIAQK([AEEA-γGlu-C20 diacid])AFIEYLLEGGPSSGEPPPSEG-NH2 [Example 295] | 0.126 nM | – | 61.1 nM
26 | Y[Aib]QGTFTSDYSI[αMeL]LDKQAAKAFVEWLLAGGPSSGEPPPSEG-NH2 (not fully specified (residue 20)) [Example 305] | 1 nM | 92.4 nM | –
27 | Y[Aib]QGT[αMePhe(2-F)]TSDYSKLLDKQAQK([AEEA-γGlu-C20 diacid])QFIEYLIEGGPSSGEPPPSEG-NH2 [Example 309] | 0.32 nM | 424 nM | –

Molecular target: human glucagon receptor (human) (UniProt P47871)
Sequence (P47871 26-477): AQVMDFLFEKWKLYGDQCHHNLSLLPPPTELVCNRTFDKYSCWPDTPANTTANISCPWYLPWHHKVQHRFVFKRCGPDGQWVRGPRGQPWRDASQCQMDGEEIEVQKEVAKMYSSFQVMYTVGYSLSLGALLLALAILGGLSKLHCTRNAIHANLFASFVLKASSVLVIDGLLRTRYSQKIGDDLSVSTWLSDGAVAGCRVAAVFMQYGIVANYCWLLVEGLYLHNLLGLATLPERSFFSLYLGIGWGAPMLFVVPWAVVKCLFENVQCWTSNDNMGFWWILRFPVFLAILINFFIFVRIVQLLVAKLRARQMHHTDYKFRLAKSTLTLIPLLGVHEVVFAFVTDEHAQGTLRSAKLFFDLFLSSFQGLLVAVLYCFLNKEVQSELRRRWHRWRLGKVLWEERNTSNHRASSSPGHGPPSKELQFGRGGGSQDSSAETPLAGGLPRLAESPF
Assay: cell-based or functional assay

Row | Binder | Relative cAMP EC50 | cAMP Rel EC50 (1% HSA) | cAMP Rel EC50 (in the presence of 1% HSA)
28 | Y[Aib]QGT[αMeF]TSDYSILLDKIAAKNFIEYLVEGGPSSGEPPPSEG-NH2 (not fully specified (residue 20)) [Example 307] | 1.68 nM | 1880 nM | –
29 | [NMeY][Aib]QGT[αMeF]TSDYSILLDKQAAKAFVQWLIAGGPSSGEPPPSEG-NH2 (not fully specified (residue 20)) [Example 301] | 6.73 nM | 1500 nM | –
30 | Y[Aib]QGTFTSDYSI[αMeL]LDKQAAKQFVEWLLA[Aib]GPSSGEPPPSEG (not fully specified (residue 20)) [Example 329] | 3.47 nM | 842 nM | –
31 | Y[Aib]QGT[αMePhe(2-F)]TSDYSKLLDKIAQKAFIEYLIEGGPSSGEPPPSEG-NH2 (not fully specified (residue 20)) [Example 304] | 2.31 nM | 1720 nM | –
32 | Y[Aib]QGTFTSDYSI[αMeL]LDKK([AEEA-γGlu-C20 diacid])AQRAFIEYLLEGGPSSGEPPPSEG-NH2 [Example 289] | 5.02 nM | – | 1750 nM
33 | Y[Aib]QGT[αMePhe(2-F)]TSDYSKLLDKIAQK([AEEA-γGlu-C20 diacid])AFIEYLLEGGPSSGEPPPSEG-NH2 [Example 295] | 2.15 nM | – | 605 nM
34 | Y[Aib]QGTFTSDYSI[αMeL]LDKQAAKAFVEWLLAGGPSSGEPPPSEG-NH2 (not fully specified (residue 20)) [Example 305] | 6.73 nM | 1500 nM | –
35 | Y[Aib]QGT[αMePhe(2-F)]TSDYSKLLDKQAQK([AEEA-γGlu-C20 diacid])QFIEYLIEGGPSSGEPPPSEG-NH2 [Example 309] | 9.28 nM | 3910 nM | –
